Laboratory results reported in the supplement of paper PMC9170038.

Test system: MS2 coat protein
Assay: apparent KD of MS2 coat protein; designed switch direction (-1 OFF switch, 1 ON switch): 1; higher = weaker reporter binding
In short: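 Each step of the titration lasted 0.8–1.5 h at the lowest concentration and 10–20 min at the highest. The protein, SNAP-549-labelled MS2 coat protein, went from 0.7 or 1.5 nM doubling to 3 µM over RNA switches transcribed on Illumina chips by stalled E. coli RNA polymerase. Normalised cluster fluorescence was curve-fitted, and the per-design median over clusters is given as apparent KD.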

[1] = input ligand: microRNA oligo, concentration not stated
[2] = Eterna round: R95, input ligand: FMN 200 uM
[3] = Eterna round: R95, input ligand: microRNA oligo, concentration not stated
[4] = Eterna round: R95, input ligand: none

Sequence: GCUCGAUGAACGUCCUACAUGAGGAUCACCCAUGUUCGUGGGCAGGAUAUUUACAUGCAGAGUGUAGAGAAGGGCCCAUCGAGC [SameState NG3 #64] (Eterna round: R96, puzzle: Same State NG 3)
- apparent KD of MS2 coat protein (input ligand: FMN 200 uM): 67.8 nM
- apparent KD of MS2 coat protein [1]: 74.6 nM
- apparent KD of MS2 coat protein (input ligand: none): 165 nM

Sequence: GUGGUCAGACAUGAGGAUCACCCAUGUGGAAUAAAUAAGGGACAGGAUAUCUAAUAUAGGAUAUAAGAGAAGGGUUGGUUGGUG (Eterna round: R96, puzzle: Same State NG 3)
- apparent KD of MS2 coat protein (input ligand: FMN 200 uM): 69.3 nM
- apparent KD of MS2 coat protein [1]: 44.8 nM
- apparent KD of MS2 coat protein (input ligand: none): 73.5 nM

Sequence: UGUUAACAUGAGGAUCACCCAUGUCAAAUGAAUCGAGGAUAUGGGAAGUAAUAAGAGAAACUAGAAGGCGAAGUUG [Altered State 1-2 - Jieux - Same State 1] (puzzle: Same State 1)
- apparent KD of MS2 coat protein [2]: 276 nM
- apparent KD of MS2 coat protein [3]: 353 nM
- apparent KD of MS2 coat protein [4]: 192 nM

Sequence: AUUAUUUAUGCAGGAUAUGAUUAACAUGAGGAUCACCCAUGUGGUGUUGUGAGUAAGGAGAGUGAUCAGAAGGGCAUUUUUUUG [JMF's solution 57] (Eterna round: R96, puzzle: Same State NG 2)
- apparent KD of MS2 coat protein (input ligand: FMN 200 uM): 666 nM
- apparent KD of MS2 coat protein [1]: 451 nM
- apparent KD of MS2 coat protein (input ligand: none): 350 nM

Sequence: UGAAUGGUGAUAGGAUAUACAUGAGGAAUCCUCGUAGAAGGAUCAUGACAUGAGGAUCACCCAUGUAGCCGUCCGUAGACGGCA [JL SSNG1 1.22] (Eterna round: R96, puzzle: Same State NG 1)
- apparent KD of MS2 coat protein (input ligand: FMN 200 uM): 140 nM
- apparent KD of MS2 coat protein [1]: 22.1 nM
- apparent KD of MS2 coat protein (input ligand: none): 351 nM

Sequence: AGUCCAGCCUGAGCUGGACAAAAGCAUGUACAUGAGGAUCACCCAUGUCAUGUACAAGCUUUUUGUUCGUCUUAAAA [Zipper 46 - 12] (puzzle: Sensor for hsa-mir-208a)
- apparent KD of MS2 coat protein [2]: 794 nM
- apparent KD of MS2 coat protein [3]: 14.8 nM
- apparent KD of MS2 coat protein [4]: 500 nM

Sequence: GUUACAUGAGGAUCACCCAUGUAUGUGUGGGAGUAAGUGUCUUAGGAUAUCUAGUAAUUAAUUUAAGAGAAGGAAGAUUGUUGU [JMF's solution 54] (Eterna round: R96, puzzle: Same State NG 3)
- apparent KD of MS2 coat protein (input ligand: FMN 200 uM): 133 nM
- apparent KD of MS2 coat protein [1]: 93.5 nM
- apparent KD of MS2 coat protein (input ligand: none): 134 nM

Sequence: CGCUGCGUUUCAUAGGAUAUGUGGUUUUGAACAUGAGGAUCACCCAUGUAGACGUCAAUGGCUCCACAGAAGGGUGACACUAGUG [Aredis] (puzzle: Same State 2)
- apparent KD of MS2 coat protein [2]: 261 nM
- apparent KD of MS2 coat protein [3]: 571 nM
- apparent KD of MS2 coat protein [4]: 908 nM

Sequence: GCCGCGUUUCGCGCCUACAUGAGGAUCACCCAUGUAUGUCGGCAGGAUAUCGUUUGCUUUGCAAACGAGAAGGGCUGUUGUGGC [salish99_SSNG3_R04_011] (Eterna round: R96, puzzle: Same State NG 3)
- apparent KD of MS2 coat protein (input ligand: FMN 200 uM): 13.4 nM
- apparent KD of MS2 coat protein [1]: 9.04 nM
- apparent KD of MS2 coat protein (input ligand: none): 14.4 nM

Sequence: UGUUGUAUUACAGGAUAUCUAAUAUUUUUAUUUAGAGAAGGGUAUUCACAUGAGGAUCACCCAUGUAUAUACGAGGAAGUUGUG [JMF's solution 8] (Eterna round: R96, puzzle: Same State NG 1)
- apparent KD of MS2 coat protein [1]: 24.6 nM

Sequence: UUAUCAUUGCAAGGAUAUUGAUUACAUGAGGAUCACCCAUGUUAAUGAACACUAUGUACUACUAACAAGAAGGUGCUAUAAAUU [JR_SSNG2_Sub041] (Eterna round: R96, puzzle: Same State NG 2)
- apparent KD of MS2 coat protein (input ligand: FMN 200 uM): 35.1 nM
- apparent KD of MS2 coat protein [1]: 28 nM
- apparent KD of MS2 coat protein (input ligand: none): 34.3 nM

Sequence: UGGUAACAUGAGGAUCACCCAUGUCAAAUGAAUCGAGGAUAUGGGAAUUAACAACACAAACUAGAAGGCGAAUUUG [Altered State 1-8 - Jieux - Same State 1] (puzzle: Same State 1)
- apparent KD of MS2 coat protein [2]: 293 nM
- apparent KD of MS2 coat protein [3]: 488 nM
- apparent KD of MS2 coat protein [4]: 180 nM
